In patent US20200079833A1 (AstraZeneca / MedImmune, published 2020):
Starred links: 1 amine or outer side, 2 acyl side, 3 side chain; linkers in the order of their positions; H or OH if unused. Non-standard residues stand in square brackets, D forms with d. Groups on a side chain read outwards from the residue. Primed or numbered codes have the meaning given here. No end group written: not given here. *: point of attachment. γGlu = O=C(O)[C@H](CCC(=O)[*:2])N[*:1]; Palmitoyl = CCCCCCCCCCCCCCCC(=O)*; αMeF = C[C@](N)(Cc1ccccc1)C(=O)O; αMeK = C[C@](N)(CCCCN)C(=O)O; Lauroyl = CCCCCCCCCCCC(=O)*; αMeS = C[C@](N)(CO)C(=O)O; PEG2′ = not defined here; Aib = CC(C)(N)C(=O)O

T1: GLP-1R in the INS1e assay (UniProt P32301 22-463, limits assumed)
T1 sequence (looked up): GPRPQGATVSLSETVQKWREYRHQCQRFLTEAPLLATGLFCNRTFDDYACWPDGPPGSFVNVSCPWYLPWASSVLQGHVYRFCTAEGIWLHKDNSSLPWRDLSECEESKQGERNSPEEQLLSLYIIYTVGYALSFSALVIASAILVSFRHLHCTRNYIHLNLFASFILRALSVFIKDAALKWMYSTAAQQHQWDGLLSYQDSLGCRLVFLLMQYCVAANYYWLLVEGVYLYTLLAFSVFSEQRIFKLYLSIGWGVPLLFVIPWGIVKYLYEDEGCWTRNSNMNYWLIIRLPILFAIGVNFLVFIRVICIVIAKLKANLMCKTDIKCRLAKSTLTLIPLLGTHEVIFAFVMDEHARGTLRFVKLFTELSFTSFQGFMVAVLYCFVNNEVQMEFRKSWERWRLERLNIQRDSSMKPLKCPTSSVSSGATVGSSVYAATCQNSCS

T2: glucose-dependent insulinotropic peptide (gastric inhibitory polypeptide) receptor (GIPR), primary cAMP assay (human, UniProt P48546 22-466)
T2 sequence (looked up): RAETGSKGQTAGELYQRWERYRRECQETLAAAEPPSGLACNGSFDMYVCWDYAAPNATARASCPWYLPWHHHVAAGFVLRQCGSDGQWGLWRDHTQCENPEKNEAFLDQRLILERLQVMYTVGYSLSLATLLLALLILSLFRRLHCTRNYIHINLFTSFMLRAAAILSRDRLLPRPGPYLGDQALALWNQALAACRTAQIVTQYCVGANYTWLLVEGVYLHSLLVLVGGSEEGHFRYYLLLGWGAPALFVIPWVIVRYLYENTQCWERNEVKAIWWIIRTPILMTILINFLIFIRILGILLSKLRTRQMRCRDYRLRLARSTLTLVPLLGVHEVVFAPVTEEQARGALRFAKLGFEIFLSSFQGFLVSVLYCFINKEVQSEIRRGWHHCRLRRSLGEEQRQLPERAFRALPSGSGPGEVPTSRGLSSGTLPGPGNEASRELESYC

B1: SEQ ID NO: 249 (peptide)
peptide: H[Aib]EGS[αMeF]TSDVSK([PEG2′-PEG2′-γGlu-Lauroyl])YLEGEAA[αMeK]EFIK([PEG2′-PEG2′-γGlu-Lauroyl])WVVEGG-NH2
B2: SEQ ID NO: 246 (peptide)
peptide: H[Aib]EGS[αMeF]TSDVSK([PEG2′-PEG2′-γGlu-Palmitoyl])YLEGEAAEEFIK([PEG2′-PEG2′-γGlu-Palmitoyl])WVVEGG-NH2
B3: SEQ ID NO: 237 (peptide)
peptide: H[Aib]EGTFTSDVSK([PEG2′-PEG2′-γGlu-Lauroyl])FLEGEAAEEFIK([PEG2′-PEG2′-γGlu-Lauroyl])WVVEGG-NH2
B4: SEQ ID NO: 251 (peptide)
peptide: H[Aib]EGS[αMeF]TSDVSK([PEG2′-PEG2′-γGlu-Palmitoyl])YLEGEAA[αMeK]EFIK([PEG2′-PEG2′-γGlu-Palmitoyl])WVVEGG-NH2
B5: SEQ ID NO: 250 (peptide)
peptide: H[Aib]EGS[αMeF]TSDVSK([PEG2′-PEG2′-γGlu-Palmitoyl])FLEGEAA[αMeK]EFIK([PEG2′-PEG2′-γGlu-Palmitoyl])FVVEGG-NH2
B6: SEQ ID NO: 240 (peptide)
peptide: H[Aib]EGS[αMeF]TSDVSK([PEG2′-PEG2′-γGlu-Lauroyl])YLEGEAAEEFIK([PEG2′-PEG2′-γGlu-Lauroyl])WVVEGG-NH2
B7: SEQ ID NO: 241 (peptide)
peptide: H[Aib]EGS[αMeF]TSDVSK([PEG2′-PEG2′-γGlu-Lauroyl])FLEGEAAEEFIK([PEG2′-PEG2′-γGlu-Lauroyl])FVVEGG-NH2
B8: SEQ ID NO: 248 (peptide)
peptide: H[Aib]EGS[αMeF]TSDVSK([PEG2′-PEG2′-γGlu-Lauroyl])FLEGEAA[αMeK]EFIK([PEG2′-PEG2′-γGlu-Lauroyl])FVVEGG-NH2
B9: SEQ ID NO: 247 (peptide)
peptide: H[Aib]EGS[αMeF]TSDVSK([PEG2′-PEG2′-γGlu-Palmitoyl])FLEGEAAEEFIK([PEG2′-PEG2′-γGlu-Palmitoyl])FVVEGG-NH2
B10: SEQ ID NO: 236 (peptide)
peptide: H[Aib]EGTFTSDVSK([PEG2′-PEG2′-γGlu-Lauroyl])YLEGEAAEEFIK([PEG2′-PEG2′-γGlu-Lauroyl])WVVEGG-NH2
B11: SEQ ID NO: 239 (peptide)
peptide: H[Aib]EGTFTSDVSK([PEG2′-PEG2′-γGlu-Lauroyl])FLEGEAAEEFIK([PEG2′-PEG2′-γGlu-Lauroyl])FVVEGG-NH2
B12: SEQ ID NO: 238 (peptide)
peptide: H[Aib]EGTFTSDVSK([PEG2′-PEG2′-γGlu-Lauroyl])YLEGEAAEEFIK([PEG2′-PEG2′-γGlu-Lauroyl])FVVEGG-NH2
B13: SEQ ID NO: 271 (peptide)
peptide: H[Aib]EGS[αMeF]TSDV[αMeS]SYK([PEG2′-PEG2′-γGlu-Palmitoyl])EGEAA[αMeK]EFIK([PEG2′-PEG2′-γGlu-Palmitoyl])WVVEGG-NH2
B14: SEQ ID NO: 273 (peptide)
peptide: H[Aib]EGS[αMeF]TSDV[αMeS]SYK([PEG2′-PEG2′-γGlu-Palmitoyl])EGEAA[αMeK]EFIAWK([PEG2′-PEG2′-γGlu-Palmitoyl])VEGG-NH2
B15: SEQ ID NO: 272 (peptide)
peptide: H[Aib]EGS[αMeF]TSDV[αMeS]SYK([PEG2′-PEG2′-γGlu-Palmitoyl])EGEAA[αMeK]EFIAK([PEG2′-PEG2′-γGlu-Palmitoyl])VVEGG-NH2

target: T1, GLP-1R in the INS1e assay; test: cell-based or functional assay

Row | INS1e assay EC50 (cAMP) Mean | INS1e assay EC50 (cAMP) n1 | INS1e assay EC50 (cAMP) n2 | Binder
1 | 0.566 nM | 0.721 nM | 0.41 nM | B1
2 | 71.3 nM | 71.3 nM | 71.3 nM | B2
3 | 19.3 nM | 14.3 nM | 24.3 nM | B3
4 | 7.16 nM | 6.47 nM | 7.85 nM | B4
5 | 38.1 nM | 36.7 nM | 39.4 nM | B5
6 | 6.02 nM | 6.86 nM | 5.17 nM | B6
7 | 6.28 nM | 5.84 nM | 6.71 nM | B7
8 | 0.403 nM | 0.337 nM | 0.468 nM | B8
9 | 72.1 nM | 72.1 nM | 72.1 nM | B9
10 | 12.3 nM | 12 nM | 12.7 nM | B10
11 | 13 nM | 14.7 nM | 11.2 nM | B11
12 | 13.7 nM | 15 nM | 12.4 nM | B12

target: glucagon receptor (GCGR), primary cAMP assay (human, UniProt P47871 26-477); test: cell-based or functional assay
Sequence (P47871 26-477): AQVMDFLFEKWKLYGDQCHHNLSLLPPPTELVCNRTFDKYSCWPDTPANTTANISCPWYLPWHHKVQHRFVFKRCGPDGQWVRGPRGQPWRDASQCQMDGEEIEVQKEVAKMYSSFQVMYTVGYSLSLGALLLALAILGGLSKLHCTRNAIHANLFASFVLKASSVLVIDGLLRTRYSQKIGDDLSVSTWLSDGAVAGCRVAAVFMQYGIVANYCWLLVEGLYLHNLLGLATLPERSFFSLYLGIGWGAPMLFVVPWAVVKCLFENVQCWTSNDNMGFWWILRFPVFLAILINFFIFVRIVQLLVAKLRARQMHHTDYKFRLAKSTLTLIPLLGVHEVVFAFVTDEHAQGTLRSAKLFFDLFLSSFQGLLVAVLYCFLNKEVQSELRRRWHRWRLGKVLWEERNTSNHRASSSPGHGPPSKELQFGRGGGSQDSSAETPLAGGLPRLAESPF

Row | Primary assay EC50 (cAMP), n1 | Primary assay EC50 (cAMP), n2 | Binder
13 | 21.4 nM | 21.4 nM | B13
14 | 22.1 nM | 22.1 nM | B1
15 | 21.4 nM | 21.4 nM | B2
16 | 22.3 nM | 22.3 nM | B3
17 | 21.3 nM | 21.3 nM | B4
18 | 21.6 nM | 21.6 nM | B5
19 | 22.2 nM | 22.2 nM | B6
20 | 22.5 nM | 22.5 nM | B7
21 | 22.4 nM | 22.4 nM | B8
22 | 21.5 nM | 21.5 nM | B14
23 | 21.6 nM | 21.6 nM | B9
24 | 22.2 nM | 22.2 nM | B10
25 | 22.5 nM | 22.5 nM | B11
26 | 22.4 nM | 22.4 nM | B12
27 | 21.9 nM | 21.9 nM | B15

target: GLP-1 receptor (GLP-1R), primary cAMP assay (human, UniProt P43220 24-463); test: cell-based or functional assay

Row | Primary assay EC50 (cAMP) Mean | Primary assay EC50 (cAMP), n1 | Primary assay EC50 (cAMP), n2 | Binder
28 | 0.821 nM | 0.891 nM | 0.75 nM | B13
29 | 0.0055 nM | 0.00447 nM | 0.00649 nM | B1
30 | 1.4 nM | 0.999 nM | 1.8 nM | B2
31 | 0.0209 nM | 0.0195 nM | 0.0223 nM | B3
32 | 0.0311 nM | 0.016 nM | 0.0462 nM | B4
33 | 0.0451 nM | 0.0292 nM | 0.061 nM | B5
34 | 0.014 nM | 0.0109 nM | 0.0171 nM | B6
35 | 0.0096 nM | 0.00755 nM | 0.0116 nM | B7
36 | 0.005 nM | 0.00377 nM | 0.0062 nM | B8
37 | 0.762 nM | 0.741 nM | 0.783 nM | B14
38 | 1.67 nM | 1.31 nM | 2.02 nM | B9
39 | 0.0217 nM | 0.0165 nM | 0.0268 nM | B10
40 | 0.0074 nM | 0.0063 nM | 0.00845 nM | B11
41 | 0.011 nM | 0.00875 nM | 0.0132 nM | B12
42 | 0.335 nM | 0.339 nM | 0.331 nM | B15

target: T2, glucose-dependent insulinotropic …; test: cell-based or functional assay

Row | Primary assay EC50 (cAMP), n1 | Primary assay EC50 (cAMP), n2 | Binder
43 | 21.4 nM | 21.4 nM | B13
44 | 22.1 nM | 22.1 nM | B1
45 | 21.4 nM | 21.4 nM | B2
46 | 22.3 nM | 22.3 nM | B3
47 | 21.3 nM | 21.3 nM | B4
48 | 21.6 nM | 21.6 nM | B5
49 | 22.2 nM | 22.2 nM | B6
50 | 22.5 nM | 22.5 nM | B7
51 | 22.4 nM | 22.4 nM | B8
52 | 21.5 nM | 21.5 nM | B14
53 | 21.6 nM | 21.6 nM | B9
54 | 22.2 nM | 22.2 nM | B10
55 | 22.5 nM | 22.5 nM | B11
56 | 22.4 nM | 22.4 nM | B12
57 | 21.9 nM | 21.9 nM | B15
